Experiments:
[1] = target: T1, Cynomolgus IL-1RAP on normal cynomolgus dermal fibroblasts (cynomolgus monkey, UniProt P59822 21-570 (rhesus entry)); test: flow cytometry on normal cynomolgus fibroblasts, nonlinear sigmoidal regression
T1 construct: Endogenous protein on cells; also called Cyno IL-1RAP
T1 sequence: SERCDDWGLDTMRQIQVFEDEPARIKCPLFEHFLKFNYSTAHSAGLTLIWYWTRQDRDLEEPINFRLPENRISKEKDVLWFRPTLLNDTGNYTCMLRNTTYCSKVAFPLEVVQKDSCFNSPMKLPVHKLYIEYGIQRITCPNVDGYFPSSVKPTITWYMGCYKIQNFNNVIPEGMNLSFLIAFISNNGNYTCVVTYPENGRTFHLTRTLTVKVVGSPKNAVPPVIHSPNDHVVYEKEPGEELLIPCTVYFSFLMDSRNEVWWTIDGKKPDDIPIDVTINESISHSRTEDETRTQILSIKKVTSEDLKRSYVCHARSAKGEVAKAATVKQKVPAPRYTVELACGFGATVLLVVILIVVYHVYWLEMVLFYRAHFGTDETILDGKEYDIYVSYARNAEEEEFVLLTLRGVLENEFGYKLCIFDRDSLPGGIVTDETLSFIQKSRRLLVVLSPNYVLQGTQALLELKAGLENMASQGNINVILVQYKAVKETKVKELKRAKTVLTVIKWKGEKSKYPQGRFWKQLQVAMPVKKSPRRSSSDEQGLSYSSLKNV
Procedure: Bound antibodies were detected with a monoclonal anti-human IgG PE-Cyanine7 secondary antibody. The graphs show the nonlinear sigmoidal regression binding curves (Relative Geometric Mean Fluorescence Intensity) for each cell lines. Each data point is a measurement for a given cell line. Multiple independent experiments were performed across several donors (HaCaT and HaCaT IL-1RAP KO: 4 and 3 independent experiments; Human Dermal Fibroblasts: 2 independent experiments—total of 5 donors; Human Neutrophil: 2 experiments—total of 6 donors; Cyno Dermal Fibroblasts: 2 independent experiment—total of 4 donors).
In brief, cells were harvested, counted, and plated at 50,000 cells/well in a 96-well round-bottom plate. The plate was centrifuged at 350 g for 3 minutes and the cells were resuspended in 50 μl of FACS® buffer (PBS (1×)+2.5% FCS+2 mM EDTA+0.05% NaN₃) containing various concentrations (ranging from 50 to 0.00003 μg/ml) of either anti-human IL-1RAP_candidate_1 or Isotype control_5 antibodies. […] The cells were gated based on size on FSC vs SSC and analyzed for PE-Cyanine7-geometric mean (geomean) fluorescence intensity using FLOWJO® software. Finally, relative geomean fluorescence intensity was calculated by subtracting fluorescence of anti-human IL-1RAP_candidate_1 per fluorescence of Isotype control_5. […]

[2] = target: T2, Recombinant human IL-1RAP-ECD(S21-E359)-avi-his protein (human, UniProt Q9NPH3 21-359); test: SPR, IgG1 LALA captured on anti-human IgG Fc CM5 chip, human IL-1RAP-avi-his as analyte in a concentration series, 1:1 fit, one representative replicate
T2 construct: Biotinylated where loaded on streptavidin; also called human IL-1RAP-ECD-Avi-His; recombinant human IL-1RAP-avi-his protein
T2 sequence: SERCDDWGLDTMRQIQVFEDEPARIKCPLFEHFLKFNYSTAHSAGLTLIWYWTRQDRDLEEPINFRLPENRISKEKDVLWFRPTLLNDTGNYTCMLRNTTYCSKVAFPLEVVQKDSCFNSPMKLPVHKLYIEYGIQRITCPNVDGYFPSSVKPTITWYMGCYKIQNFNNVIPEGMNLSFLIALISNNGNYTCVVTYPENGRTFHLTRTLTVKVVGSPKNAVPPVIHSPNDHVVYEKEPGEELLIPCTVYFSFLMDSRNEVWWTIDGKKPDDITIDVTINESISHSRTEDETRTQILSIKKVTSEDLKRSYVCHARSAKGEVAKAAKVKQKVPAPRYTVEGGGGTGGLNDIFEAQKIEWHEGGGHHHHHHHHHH
Procedure: Anti-IL-1RAP-C8-RecC-ES IgG1 LALA was immobilized on a Series S CM5 sensor CHIP coupled with anti-human IgG Fc. Human IL-1RAP-avi-his or cynomolgus monkey IL-1RAP-avi-his was injected over immobilized IgG1 LALA in concentration series in HBS-EP+ buffer. One representative replicate for human IL-1RAP and cynomolgus monkey IL-1RAP is presented. Plots are showing data expressed as number of resonance units (abbreviated RU; Y axis) vs. time (s, X axis). Dotted lines represent the measured data while solid lines represent simulated fits. KD: equilibrium dissociation constant; Ka: association constant; Kd: dissociation constant.
Surface plasmon resonance (SPR) was used to measure the binding affinities of the human IgG1 LALA molecules for human and cynomolgus monkey IL-1RAP. Affinities were measured on a BIACORE™ T200 instrument (BIACORE™, GE […]®) at 25° C. and analyzed with the BIACORE™ T200 Evaluation Software (v3.1). Measurements were performed on Series S CM5 sensor chips (BIACORE™ T200, BIACORE™, GE […]®, catalog no. BR100530) coupled with anti-human IgG Fc (BIACORE™, GE […]®, catalog no. BR100839) using a commercial amine coupling kit (BIACORE™, GE […]®, catalog no. BR100050). SPR measurements were performed with recombinant human IL-1RAP-avi-his protein produced in house (SEQ ID NO. 1) or recombinant cynomolgus monkey IL-1RAP-avi-his protein produced in house (SEQ ID NO. 2). The affinities to human and cynomolgus monkey IL-1RAP were assessed by immobilizing anti-IL-1RAP IgG1 LALA molecules and using IL-1RAP proteins as analyte. Around 150 RU of human IgG1 LALA were captured on fc2 of a Series S CM5 sensor chip coupled with anti-human IgG Fc. Recombinant human IL-1RAP-avi-his protein or recombinant cynomolgus monkey IL-1RAP-avi-his protein was injected in multi cycle kinetic at different concentrations ranging from 0.14 to 100 nM, in HBS-EP+ buffer (BIACORE™, GE […]®, catalog no. BR100669) at a flow rate of 30 μl/min for 3 min on fc1 and fc2 (fc1 being used as reference). Dissociation was monitored for 12 min.

- Kd [1]: 1.55 nM
- Kd [2]: 0.267 nM
- koff [2]: 0.000169 s⁻¹
- kon [2]: 633000 M⁻¹ s⁻¹
B1: Anti-IL-1RAP-C8-RecC-ES-IgG1LALA (antibody, V domains shown)
VH: QVQLVQSGAEVKKPGSSVKVSCKASGSPAEPYAIQWVRQAPGQGLEWMGYIIPSLGGYDYAQKFQGRVTITADESTSTAYMELSSLRSEDTAVYYCARGQTLYESGRQFDIWGQGTLVTVSS
VL: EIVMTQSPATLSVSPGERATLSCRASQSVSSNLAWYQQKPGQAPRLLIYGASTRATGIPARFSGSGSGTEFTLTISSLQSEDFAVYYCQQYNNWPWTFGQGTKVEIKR
notes: also called ISB 880-C8-recC-ES
